Measured values reported in US20220112295A1 (Novo Nordisk, published 2022).

T1: mouse CD30L (mouse, UniProt P32972 68-239, limits assumed)
T1 construct: The form tested is not described
T1 sequence (looked up): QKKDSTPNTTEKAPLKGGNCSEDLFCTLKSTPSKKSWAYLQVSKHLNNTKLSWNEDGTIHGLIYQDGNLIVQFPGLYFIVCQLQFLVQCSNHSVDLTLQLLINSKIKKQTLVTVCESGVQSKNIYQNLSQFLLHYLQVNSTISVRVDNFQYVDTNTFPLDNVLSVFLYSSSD

T2: native cynomolgus monkey CD30L on activated T cells (cynomolgus monkey, UniProt A0A7N9CVX7 1-234)
T2 construct: whole, on cells; also called cynomologous CD30L
T2 sequence: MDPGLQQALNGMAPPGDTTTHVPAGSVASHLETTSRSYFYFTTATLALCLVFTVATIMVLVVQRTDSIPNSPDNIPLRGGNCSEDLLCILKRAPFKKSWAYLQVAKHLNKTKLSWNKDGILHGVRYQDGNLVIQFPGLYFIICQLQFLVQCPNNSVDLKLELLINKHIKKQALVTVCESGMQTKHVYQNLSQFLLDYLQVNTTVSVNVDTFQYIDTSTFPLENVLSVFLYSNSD

T3: native human CD30L expressed on Ramos cells (human, UniProt P32971 1-234)
T3 construct: It is used here for the native protein on human B cell lines; also called huCD30L; Native huCD30L
T3 sequence: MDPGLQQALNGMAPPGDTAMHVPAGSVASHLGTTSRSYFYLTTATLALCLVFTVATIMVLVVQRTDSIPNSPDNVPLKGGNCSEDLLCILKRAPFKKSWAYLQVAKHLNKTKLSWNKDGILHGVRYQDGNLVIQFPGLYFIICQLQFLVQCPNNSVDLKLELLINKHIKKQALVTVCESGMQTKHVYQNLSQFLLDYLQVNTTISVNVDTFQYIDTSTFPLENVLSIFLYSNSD


Columns and labels:
mouse CD30L = target: T1, mouse CD30L; assay: not described
[1] = target: T2, native cynomolgus monkey CD30L on …; assay: FACS, native cyno CD30L on activated cynomolgus T cells
Protocol: The antibodies were rescreened for binding to native human and cynomologous monkey CD30L. Briefly, human Burkitt's lymphoma Ramos cells (3×10⁵/well) were incubated in round-bottomed 96-well microtiter plates (Costar® 96 well plate (Corning; Acton, Mass.) with a titration (10 μg/mL to 3.2 ng/mL final concentration) of anti-CD30L IgG antibodies in blocking buffer (PBS containing 0.02% sodium azide, 2% normal goat serum and 1% normal rabbit serum). Human […] fusion protein was included as a positive control for binding. Cells were incubated for 30 minutes at 4° C. then washed ×2 with PBS and incubated for a further 30 minutes at 4° C. with 30 μL/well of anti-hu IgG-biotin (1:50 in blocking buffer; Jackson Immunoresearch, West Grove, Pa.). After washing ×2 with PBS, cells were incubated for 30 minutes at 4° C. with 30 μL/well (1:50 dilution in PBS) of Streptavidin-Phycoerythrin (PE; Molecular Probes, Eugene, Oreg.). Cells were washed 2× with PBS and prepared for FACs analysis.
(§1) Cynomologous activated T cells were prepared by isolating peripheral blood mononuclear cells (PBMC) from heparinized cynomolgus monkey blood by density centrifugation over Isolymph (2000 rpm. for 20 minutes). PBMC were resuspended in 25 mLs of PBS, added to 300 μl of a 50% solution of 2-Aminoethylisothiouronium bromide (AET)-treated sheep erythrocytes and centrifuged at […] at 4° C. for 10 minutes. Pelleted cells were incubated at 4° C. for a further 20 minutes, gently resuspended and centrifuged over Isolymph. Supernatant was removed down to the T cell/erythrocyte pellet. The pellet was then resuspended in 25 mL of lyses buffer (0.85% ammonium chloride in water) and incubated at 37° C. for 10 minutes. The resultant T cells were pelleted and washed x2 in culture medium (RPMI-1640 medium +10% heat-inactivated fetal bovine serum) and then cultured ([…]) at 37° C. for 18 hr in the presence of 10 ng/mL Phorbol Myristate Acetate (PMA; Sigma Chemicals, St Louis, Mo.) and 500 ng/mL lonornycin (Calbiochem, San Francisco, Calif.). At the end of the culture period, cynomolgus T cells were counted and washed 1× with PBS and incubated with 2% Goat serum, 1% Rabbit serum and 0.1% Human serum in PBS for 30 minutes at […]. Cells were then stained with anti-huCD30L antibodies as described above for human Ramos cells.

[2] = target: T3, native human CD30L expressed on Ramos …; assay: FACS Kd method on Ramos cells, equilibrium, KinExA n-curve analysis
Protocol: Binding affinity of CD30L antibodies to CD30L expressed on Ramos cells were determined by FACS Kd method. The Ramos cells were cultured in RMPI1640 media+10% FBS+L-glut+0.05% azide. Two equilibrium reactions were set up where the antibodies were titrated 1:3 from 60 nM to […] using cell culture media and incubated with two different constant cell concentrations (25000 and 250000 cells). The plates were sealed with parafilm and incubated at 37° C., 20 h, shaking. The equilibrium plates were centrifuged and cell pellets were washed twice with ice cold FACS buffer (1× D-PBS+2% FBS). The cells were then incubated with a secondary antibody goat anti-human Fe Cy5 (Jackson Immuno Research, West Grove, Pa.) and with 7AAD (BD-Biosciences, Rockville, Md.) for 1 h on ice in the dark. Following the incubation, the cells were washed twice with ice-cold FACS buffer before flow cytometry analysis. The GeoMean values of FL4 shift gated on live cell population measure the bound [Ab]. The inverse of the GeoMean values that reflects theoretical free [Ag] in the equilibrium solution was then calculated. The inverse values of the GeoMean read were used in KinExA software for analysis and Kd calculation for each antibody. The free [Ag] measure was plotted against the starting concentration of titrating component and from these plots at two different cell concentrations the Kd was obtained from curve fitting using n-curve analysis in KinExA™ Pro software. The 95% confidence interval is given as Kd low and Kd high.

[3] = target: T2, native cynomolgus monkey CD30L on …; assay: FACS, antibody at 50 ug/mL, inhibition of huCD30.Fc-His binding to activated cynomolgus T cells
Protocol: as §1
The antibodies were also screened for ability to block binding of human CD30L to a soluble human CD30. c molecule. Briefly, human Ramos cells or activated cynomolgus monkey T cells were incubated with anti-CD30L IgGs at 50 μg/mL in blocking buffer for 30 minutes at 4° C. Soluble huCD30. Fc-His was then added at a final concentration of 2.5 ug/mL (30 μL/well) and incubated for 30 minutes at 4° C. Cells were washed ×2 with PBS and incubated with 5 μg/mL of a mouse anti-His monoclonal antibody (30μL/well in blocking buffer) and incubated for 30 minutes at 4° C. After washing ×2 with PBS, cells were incubated with anti-mouse IgG-PE (1:50 in PBS; BD Pharmingen, San Diego, Calif.) for a further 30 minutes at […]. Cells were then washed ×2 with PBS and prepared for FACs analysis.

Binder | binding result (mouse CD30L) | EC50 [1] [nM] | Kd [2] [nM] | % inhibition [3] [%]
Antibody A (antibody, V domains shown, Human antibody (XenoMouse); also called mAb A; anti-hCD30L A) VH: QVQLQESGPGLVKPSETLSLTCTVSGGSISSYIWSWIRQPAGKGLEWIGRIYASGNTNYNPSLKSRVTMSVDTSKNQFSLKLSSMTAADTAVYYCARDYRVAGTYYYYYGLDVWGQGTTVTVSS VL: QSALTQPASVSGSPGQSITISCTGTSSDVGVYDYVSWYQQHPGKAPKLMIYEVSNRPSGVSNRFSGSKSGNTASLTISGLQTEDEADYYCSSYTSRSTWVFGGGTKLTVL | no binding | 2.2 | 0.0255 | 77
Antibody D (antibody, V domains shown, also called mAb D) VH: QVQLQESGPGLVKPSETLSLTCTVSGGSISSYSWSWIRQPAGKGLEWIGRTSTSGRNNYNPSLKSRVTMSVDTSKNQFSLKLNSVTAADTAVYYCARDFTIAARRYYYYGMDVWGQGTTVTVSS VL: QSALTQPASVSGSPGQSITISCTGTSSDIGLYNYVSWYQQHPGKAPKLIIYEVINRPSGVSNRFSGSESGNTASLTISGLQAEDEANYYCSSYTSSSTWVFGGGTKLTVL | no binding | 2.7 | 0.0119 | 84
Antibody F (antibody, V domains shown, also called mAb F) VH: QVQLQESGPGLVKPSETLSLTCTVSGGSISSYYWSWIRQPAGKGLEWIGRIFASGSTNYNPSLRSRVTMSRDTSKNQFSLKLSSVTAADTAVYYCAKERVGVQDYYHYSGMDVWGQGTTVTVSS VL: QSALTQPASVSGSPGQSITISCTGTSSDVGLYNYVSWYQQQPGKAPKLMIYEVSKRPSGVSNRFSGSTSGNTASLTISGLQADDEADYSCSSYTSSSTWVFGGGTKLTVL | no binding | 2.9 | 0.0357 | 97
Antibody B (antibody, V domains shown, also called mAb B) VH: QVQLQESGPGLVKPSETLSLTCTVSGGSISSYYWTWIRQPAGKGLEWIGRIYTSGITNYNPSLKSRVTMSVDTSKNQFSLKLSSVTAADTAVYYCARERVVGASRYYYYGVDVWGQGTTVTVSS VL: QSALTQPASVSGSPGQSITISCTGTSSDVGLYNYVSWYQQHPDKAPKLMIFEVNNRPSGVSNRFSGSNSGNTASLTISGLQAEDEADYYCSSYTSSSTWVFGGGTKLTVL | no binding | 4 | 0.00743 | 88
Antibody C (antibody, V domains shown, also called mAb C) VH: QVQLQESGPGLVKPSETLSLTCTVSGGSISSYYWTWIRQPAGKGLEWIGRIYTSGITNYNPSLKSRVTMSVDTSKNQFSLKLSSVTAADTAVYYCARERVVGASRYYYYGVDVWGQGTTVTVSS VL: QSALTQPASVSGSPGQSITISCTGTSSDIGLYDYVSWYQQHPDRAPKLIIFEVNNRPSGVSYRFSGSNSGNTASLTISGLQAEDEADYYCSSYTSSSTWVFGGGTKLTVL | no binding | 1 | 0.044 | 83
Antibody E (antibody, V domains shown, also called mAb E) VH: QVQLQESGPRLVKPSETLSLTCTVSGGSITNNYWSWIRQPAGKGLEWIGRVYSSGLTNYKPSLKSRVTMSVDTSKNQFSLRLNSVTAADTAVYYCARERATVTTRYHYDGMDVWGQGTSVTVSS VL: QSALTQPASVSGSPGQSITISCTGSSSDIGTYNYVSWYQQYPGKAPELMIYEVNNRPSGVSDRFSGSTSGNTASLTISGLQANDEADYYCSSYSSSSTWVFGGGTKLTVL | no binding | 2.7 | 0.0521 | 87
